Data on 2 molecules can be found in article PMC8965161, “Suppression of ATG4B by copper inhibits autophagy and involves in Mallory body formation” (Redox Biology, 2022).

The target of one data set is ATG4B^C0-GFP (UniProt Q9Y4P1). Description: differential detergent fractionation and western blot under non-reduced condition, oligomer band quantified (self-oligomer formation in cells). More on the design: reference not given here. The note with it: HEK-293T cells, read off a plot. In general terms: Immunoblotting shows a protein as a band on a membrane.
Data set [1] concerns the molecule itself. Description: non-reduced SDS-PAGE with Coomassie staining; ATG4B protein (4 ug) treated with designed concentrations of copper ions at 4 C for 30 min, stopped with 10 mM NEM; non-reduced condition.

As for “ATG4B-GFP (from UniProt Q9Y4P1) C0 (all 14 cysteines to serines)”, the response stood at 0.55 with ATG4B^C0-GFP (Insoluble fraction, 1 mM copper ions (CuCl2) for 6 h); 0.39 with ATG4B^C0-GFP (Insoluble fraction, no CuCl2); 0.15 with ATG4B^C0-GFP (Soluble fraction, 1 mM copper ions (CuCl2) for 6 h); 0.068 in the data set with ATG4B^C0-GFP (Soluble fraction, no CuCl2).

B1: recombinant ATG4B protein without His-Tag (enzyme, human, UniProt Q9Y4P1 1-393, looked up)
chain: MDAATLTYDTLRFAEFEDFPETSEPVWILGRKYSIFTEKDEILSDVASRLWFTYRKNFPAIGGTGPTSDTGWGCMLRCGQMIFAQALVCRHLGRDWRWTQRKRQPDSYFSVLNAFIDRKDSYYSIHQIAQMGVGEGKSIGQWYGPNTVAQVLKKLAVFDTWSSLAVHIAMDNTVVMEEIRRLCRTSVPCAGATAFPADSDRHCNGFPAGAEVTNRPSPWRPLVLLIPLRLGLTDINEAYVETLKHCFMMPQSLGVIGGKPNSAHYFIGYVGEELIYLDPHTTQPAVEPTDGCFIPDESFHCQHPPCRMSIAELDPSIAVGFFCKTEDDFNDWCQQVKKLSLLGGALPMFELVELQPSHLACPDVLNLSLDSSDVERLERFFDSEDEDFEILSL
notes: ATG4B, cysteine protease, human; source: recombinant, purified, without His-Tag
Turning to B1, the binding result in data set [1] is reported as “binds”.
